According to patent US10919943B2, “Mutant proteins enabling agrochemical control of plant gene expression” (The Regents of the University of California, priority 2016, dated 2021):
Changes are numbered by the printed parent chain. Numbers in names are those of the source.

T1: PYR1 (Arabidopsis thaliana, UniProt O49686)
T1 construct: expressed in transfected cells; host or cells: S. cerevisiae strain Y190
T1 sequence (O49686 1-191): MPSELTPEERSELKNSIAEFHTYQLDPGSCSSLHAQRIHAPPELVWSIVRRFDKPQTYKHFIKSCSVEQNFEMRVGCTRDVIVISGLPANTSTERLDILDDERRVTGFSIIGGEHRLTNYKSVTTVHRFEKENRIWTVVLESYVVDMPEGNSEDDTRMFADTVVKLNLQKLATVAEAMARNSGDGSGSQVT

B1: V393Q: HAB1 mutant (protein, listed as Arabidopsis thaliana)
chain: MEEMTPAVAMTLSLAANTMCESSPVEITQLKNVTDAADLLSDSENQSFCNGGTECTMEDVSELEEVGEQDLLKTLSDTRSGSSNVFDEDDVLSVVEDNSAVISEGLLVVDAGSELSLSNTAMEIDNGRVLATAIIVGESSIEQVPTAEVLIAGVNQDTNTSEVVIRLPDENSNHLVKGRSVYELDCIPLWGTVSIQGNRSEMEDAFAVSPHFLKLPIKMLMGDHEGMSPSLTHLTGHFFGVYDGHGGHKVADYCRDRLHFALAEEIERIKDELCKRNTGEGRQVQWDKVFTSCFLTVDGEIEGKIGRAVVGSSDKVLEAVASETVGSTAVVALVCSSHIVVSNCGDSRAVLFRGKEAMPLSVDHKPDREDEYARIENAGGKVIQWQGARVFGQLAMSRSIGDRYLKPYVIPEPEVTFMPRSREDECLILASDGLWDVMNNQEVCEIARRRILMWHKKNGAPPLAERGKGIDPACQAAADYLSMLALQKGSKDNISIIVIDLKAQRKFKTRT
B2: E203T: HAB1 mutant (protein, listed as Arabidopsis thaliana)
chain: B1 chain with E203T, Q393V
B3: V393K: HAB1 mutant (protein, listed as Arabidopsis thaliana)
chain: B1 chain with Q393K
B4: E203W: HAB1 mutant (protein, listed as Arabidopsis thaliana)
chain: B1 chain with E203W, Q393V
B5: V393R: HAB1 mutant V393R, denoted HAB1^! (protein, listed as Arabidopsis thaliana)
chain: B1 chain with Q393R
B6: E203D: HAB1 mutant (protein, listed as Arabidopsis thaliana)
chain: B1 chain with E203D, Q393V
B7: G392H: HAB1 mutant (protein, UniProt Q9CAJ0 23-511, looked up, variant G392H)
Protein phosphatase 2C 16: SPVEITQLKNVTDAADLLSDSENQSFCNGGTECTMEDVSELEEVGEQDLLKTLSDTRSGSSNVFDEDDVLSVVEDNSAVISEGLLVVDAGSELSLSNTAMEIDNGRVLATAIIVGESSIEQVPTAEVLIAGVNQDTNTSEVVIRLPDENSNHLVKGRSVYELDCIPLWGTVSIQGNRSEMEDAFAVSPHFLKLPIKMLMGDHEGMSPSLTHLTGHFFGVYDGHGGHKVADYCRDRLHFALAEEIERIKDELCKRNTGEGRQVQWDKVFTSCFLTVDGEIEGKIGRAVVGSSDKVLEAVASETVGSTAVVALVCSSHIVVSNCGDSRAVLFRGKEAMPLSVDHKPDREDEYARIENAGGKVIQWQGARVFHVLAMSRSIGDRYLKPYVIPEPEVTFMPRSREDECLILASDGLWDVMNNQEVCEIARRRILMWHKKNGAPPLAERGKGIDPACQAAADYLSMLALQKGSKDNISIIVIDLKAQRKFKTRT
B8: Y404R: HAB1 mutant (protein, UniProt Q9CAJ0 23-511, looked up, variant Y404R)
Protein phosphatase 2C 16: B7 Protein phosphatase 2C 16 with H370G, Y382R
B9: H245R: HAB1 mutant (protein, UniProt Q9CAJ0 23-511, looked up, variant H245R)
Protein phosphatase 2C 16: B7 Protein phosphatase 2C 16 with H223R, H370G
B10: H245N: HAB1 mutant (protein, UniProt Q9CAJ0 23-511, looked up, variant H245N)
Protein phosphatase 2C 16: B7 Protein phosphatase 2C 16 with H223N, H370G
B11: H245Q: HAB1 mutant (protein, UniProt Q9CAJ0 23-511, looked up, variant H245Q)
Protein phosphatase 2C 16: B7 Protein phosphatase 2C 16 with H223Q, H370G
B12: H245S: HAB1 mutant (protein, UniProt Q9CAJ0 23-511, looked up, variant H245S)
Protein phosphatase 2C 16: B7 Protein phosphatase 2C 16 with H223S, H370G
B13: Y404N: HAB1 mutant (protein, UniProt Q9CAJ0 23-511, looked up, variant Y404N)
Protein phosphatase 2C 16: B7 Protein phosphatase 2C 16 with H370G, Y382N
B14: Y404D: HAB1 mutant (protein, UniProt Q9CAJ0 23-511, looked up, variant Y404D)
Protein phosphatase 2C 16: B7 Protein phosphatase 2C 16 with H370G, Y382D
B15: G392I: HAB1 mutant (protein, UniProt Q9CAJ0 23-511, looked up, variant G392I)
Protein phosphatase 2C 16: B7 Protein phosphatase 2C 16 with H370I
B16: G392K: HAB1 mutant (protein, UniProt Q9CAJ0 23-511, looked up, variant G392K)
Protein phosphatase 2C 16: B7 Protein phosphatase 2C 16 with H370K
B17: Y404S: HAB1 mutant (protein, UniProt Q9CAJ0 23-511, looked up, variant Y404S)
Protein phosphatase 2C 16: B7 Protein phosphatase 2C 16 with H370G, Y382S
B18: Y404E: HAB1 mutant (protein, UniProt Q9CAJ0 23-511, looked up, variant Y404E)
Protein phosphatase 2C 16: B7 Protein phosphatase 2C 16 with H370G, Y382E
B19: H245M: HAB1 mutant (protein, UniProt Q9CAJ0 23-511, looked up, variant H245M)
Protein phosphatase 2C 16: B7 Protein phosphatase 2C 16 with H223M, H370G
B20: H245P: HAB1 mutant (protein, UniProt Q9CAJ0 23-511, looked up, variant H245P)
Protein phosphatase 2C 16: B7 Protein phosphatase 2C 16 with H223P, H370G
B21: H245L: HAB1 mutant (protein, UniProt Q9CAJ0 23-511, looked up, variant H245L)
Protein phosphatase 2C 16: B7 Protein phosphatase 2C 16 with H223L, H370G
B22: E201K: HAB1 mutant (protein, UniProt Q9CAJ0 23-511, looked up, variant E201K)
Protein phosphatase 2C 16: B7 Protein phosphatase 2C 16 with E179K, H370G
B23: Y404Q: HAB1 mutant (protein, UniProt Q9CAJ0 23-511, looked up, variant Y404Q)
Protein phosphatase 2C 16: B7 Protein phosphatase 2C 16 with H370G, Y382Q
B24: Y404G: HAB1 mutant (protein, UniProt Q9CAJ0 23-511, looked up, variant Y404G)
Protein phosphatase 2C 16: B7 Protein phosphatase 2C 16 with H370G, Y382G
B25: Y404P: HAB1 mutant (protein, UniProt Q9CAJ0 23-511, looked up, variant Y404P)
Protein phosphatase 2C 16: B7 Protein phosphatase 2C 16 with H370G, Y382P
B26: Y404K: HAB1 mutant (protein, UniProt Q9CAJ0 23-511, looked up, variant Y404K)
Protein phosphatase 2C 16: B7 Protein phosphatase 2C 16 with H370G, Y382K
B27: H245A: HAB1 mutant (protein, UniProt Q9CAJ0 23-511, looked up, variant H245A)
Protein phosphatase 2C 16: B7 Protein phosphatase 2C 16 with H223A, H370G
B28: E201H: HAB1 mutant (protein, UniProt Q9CAJ0 23-511, looked up, variant E201H)
Protein phosphatase 2C 16: B7 Protein phosphatase 2C 16 with E179H, H370G
B29: Y404T: HAB1 mutant (protein, UniProt Q9CAJ0 23-511, looked up, variant Y404T)
Protein phosphatase 2C 16: B7 Protein phosphatase 2C 16 with H370G, Y382T

target: T1, PYR1; assay: Yeast two hybrid of pACT-HAB1 site saturation mutants with pBD-PYR1 on 10 μM ABA, β-galactosidase staining; format: cell-based; set-up: key: x: Mutations in HAB1 that disrupt HAB1 interaction with PYR1; settings: S. cerevisiae Y190, 10 μM ABA; dead = lack of detectable staining in comparison to wild type control
Outline: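 HAB1 (lacking three N-terminal residues) site-saturation mutants in pACT were co-transformed with pBD-PYR1 into S. cerevisiae Y190 and spotted on SD (-Leu,-Trp) with 10 μM ABA. After 2 days at 30 °C, chloroform-lysed colonies were stained for β-galactosidase; "dead" means no detectable staining versus wild-type pair.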

Mutations in HAB1 that disrupt HAB1 interaction with PYR1	Molecule
x	B1
x	B2
x	B3
x	B4
x	B5
x	B6
x	B7
x	B8
x	B9
x	B10
x	B11
x	B12
x	B13
x	B14
x	B15
x	B16
x	B17
x	B18
x	B19
x	B20
x	B21
x	B22
x	B23
x	B24
x	B25
x	B26
x	B27
x	B28
x	B29
